# Test results: the DeepSol protein solubility set
# Test: soluble on expression in E. coli; label from the status in PepcDB or PDB records
row,Sequence,soluble on expression in E. coli
1,IGDFHYGIGASMSYLNTEVVNVNQAYQEYDYLYTKGNRIGQMYGLEAIGFFNSQQEINNSPQQTFSDVAPGDVKYKDQNGDNRIDEKDIVKMFGSSVPRFYFGFNLNFSYKRLELSADFQGMTGVTVSLLNSPLYSPLVSNGNISNTFLNEEISWTPENKTNATMPRLTTQENLNNYRASSLWYRDGSFLKLRNLLVAYTFPKSQTRFADLKVFVQGTNLFSLDNIHFADPEQLGIAYPSTRSYWAGIKLNF,not soluble
2,MSLAAELFATRPDTHARERPEAVALIDRDRPVTHAALRAGVLDLAGGLAALGVCRGERVALWLPNCAHWVTMFLACARLGALTLAVNTRFRAQELGDILGRGQADWLVYWPGFKGIDFAGILAAVPPAARARLRGAIVVDGSGAQATPGPAGLAAHALAALHGPAPLPAPNAGVLCFTTSGTTSLPKFVLHDQDTLLRHGDAIARSYGYDDDSRILASAPFCGAFGFATLVGALARGVPVICEPAFDAARSVAAVRRHRVTHTYANNEALVQMFRLGERADFATARLFGFASFAPALGDLLPLARAQGVPLTGLYGSSELIALVAAQPREPADGDVSVRYEPGGALIHPEARVRARDPQDGRILADGESGEIEILAPSLMRGYLDNPQASAGALTDDGYFRTGDLGYTLGTRQFVFQTRMGDSLRLSGFLVNPAEIEQAVEALPGIRACQVVGATRDGKTVPYAFVLLDAGASPDPPGWMAACRQGMAGFKVPAGFQVLEAFPVVESANSAKIQKHKLREQAEALLAAAEGHHHHHH,not soluble
3,MGSDKIHHHHHHMQNVNSAFEYCDQLVKDFERVIEHPIVSKSSVYYTGIDLGTAYIVLAVLDENYQPVAGAYRFANVVKDGMVVDYIGAIRIVKELKQELEERLDTELVYAAAALPPGTMALDSGVIKHVVQGAGFEITNLLDEPTAANAVLKIKDGAIVDIGGGTTGITILKDGEVIYVADEPTGGTHFSLVIAGAYKMSFDEAENYKQNPKNHRELTPVVGPVVEKVSSILNRHLRDYQVETIYLVGGTCCLEGIETIIARQTGIPTYKPQNPMFVTPLGIALNCTQEIL,not soluble
4,MITISNEDNMILMSRYPDKYFDLAIVDPPYGILNKTKRGGDYKFNMNEYSQWDIKPDQTYFNELFRVSKNQIIWGGNYFGELWLRSEYNKGFIIWDKNQPETLNNFSMAEMAWSSFDRPSKIFRFSVRKNRNKTHPTQKPVELYQWLLKMYAKQGDKILDTHLGSGTLAIACCIAQFDLTACEINSDYYQQSIEKIKNNLPEARISFGHPGYCIIE,not soluble
5,MPDTSPDLPAMSPLAVYRQAVEQRGFAPDEAQRRAAEALERCFQALHEAHRHGAIQGVYLWGPVGRGKTWLMDHFYQCLRVPARRQHFHHFMQWVHQRQFELTGTADPLRALARELARDVRVLCFDELFVSDIGDAILLGSLLRIMFEEGVVLVATSNQPPEQLYADGFNRERFLPAIEAIQRHMAVVAVDGGQDHRLHPGRAEQRYWVVEAGQASGFAELFARLSAGEAASTQPIELGHRPLAVHRHSESVLWCSYAQLCEAPLSALDFIGLCDRYRAILMDDLPCLSASQREGRIARGTEDGAQLVEAGDRELPQLSVHDDGVRRFIALVDECYDRKVPLYLEARVPLEALYTEGYLAFAFRRTLSRLREMQLARFGSDSAG,not soluble
6,MGSDKIHHHHHHMKLISVKRIWEQGAHNAFTDLIRFQGALFCVFREGTAHVSPDGALRILRSADLGDTWQSVALIRSDEADLRDGKLIEYQGELLLLGGGTLHDKSGLQSHLWRSLDGLVWSDALKIGDKGYWLWRLTEYQNALYGVGYRAGPDGDTRLYKSDDGVQFETWLMVFNNQGYVNESAIVFDQDNGFCLLRRDPVWGPEYVGLLGCSQAPFIDWQWQELDKRIGGPVMLMYQSRLLAVVRLYDEQVRTALVEIHPDTGVVQELLTLPSKGDTSYAGVVIDGNELWVSYYSSHEIANAQLDAQNVQNESSISTQAKTMIYFAKIQLVGEF,not soluble
7,DTIRWATEQAIANGTGEREYIKKLEPMLKELGWWGKAKDENGNEVQLGSPRRLRTILRTNKITAYHAARYAQQMENVDEQPYWRYVAVNDSRTRASHLALHGKIYRADDPIWQTMYPPNDWGCRCRVE,not soluble
8,MIPHTDIVHNLAEKVVVVRLEKPVTFHNMIAPGKEVEVSLLFFIINNSSSSQTNILAQLMDFFTGNGHLEDLSKISEPEALYAYIAEATA,not soluble
9,MGQVLPLVTRQGDRIAIVSGLRTPFARQATAFHGIPAVDLGKMVVGELLARSEIPAEVIEQLVFGQVVQMPEAPNIAREIVLGTGMNVHTDAYSVSRACATSFQAVANVAESLMAGTIRAGIAGGADSSSVLPIGVSKKLARVLVDVNKARTMSQRLKLFSRLRLRDLMPVPPAVAEYSTGLRMGDTAEQMAKTYGITREQQDALAHRSHQRAAQAWSDGKLKEEVMTAFIPPYKQPLVEDNNIRGNSSLADYAKLRPAFDRKHGTVTAANSTPLTDGAAAVILMTESRAKELGLVPLGYLRSYAFTAIDVWQDMLLGPAWSTPLALERAGLTMSDLTLIDMHEAFAAQTLANIQLLGSERFAREALGRAHATGEVDDSKFNVLGGSIAYGHPFAATGARMITQTLHELRRRGGGFGLVTACAAGGLGAAMVLEAE,soluble
10,MGSDKIHHHHHHMSIFFKPPIDIEILFDNEESRKHVDIATRSSNSSYKSMKESLPVYEDGESLGGIVTLRVRDSKKVDHLGIKVSVIGSIDMLKSHGSGNSSSKKVTSSTSSSSSNGSVDVRKNSVDQFLCQSYDLCPAGELQHSQSFPFLFRDLSKRYESYKGKNVDVAYYVKVTVMRKSTDISKIKRFWVYLYNSVTTAPNTLSANETKATTNDIAGGNYAADNASDNTQTKSTQGEAADVNQVLPISHSNNEPKPVRLDIGIENCLHIEFEYAKSQYSLKEVIVGRIYFLLTRLRIKHMELSLITRESSGLQTSNVMTDSTAIRYEIMDGSSVKGETIPIRLFLSGYDLTPNMSCNYFNVKNYLSLVIIDEDGRRYFKQSEITLYRTR,not soluble
11,MGSDKIHHHHHHMWSHQSWQDSVYGHQTKATERLAHYAHIFNSVEGNTSFYATPAPQTVLNWHSATPDNFRFTFKLPQRITHQKQLQDCNQDLRDFFHIMAPLIEKTGIWKIQLPAHFGPEQLPVLARFLDHVPQGLTYGVEVRHFAFFAKGDAERTLNRLLIDKKVNRIIMDSRPVFALPPFNETIIDAHKKKPRVPVHPIATANNPVVRFIGQADGTLALLTQLGTTALPKDNDAFFTHWLKQLTLWLNEGREPYLFIHTPDNQTAPELAARLYRKLQLHIAEHIQLADIKLLEKKAEEKSAQMGLDW,not soluble
12,MGSDKIHHHHHHMAKLMNNKLKKEIIDFAHSIGIDSIGFTTADPFDELKQKLEEYHAKGYASGFEESNISLRTEPKLSLPSARSIIAIAVGYPNKLKGAPKSVKGDRRGMFARASWGQDYHSIMRKRLDKLADFIKEKVPDVEIQSMVDTGVLSDRAVAERAGLGFTGRNGFVISPELGTWSYLGEMLVSIPFEPDDPLLDSCGDCTICVDRCPTGALVGNGQLNSQKCISFLTQTKGYLQDEYRYKIGNRLYGCDTCQQVCPKNRGINTQHDDIVLEPEILKPRLVPLLQMSNKKFKSTYGHLAGAWRGKKPIQRNAIIALAHFKEESAIPELKEVALNDPRPMIRGTAYWAIGQILEDDAISFIDEHYENEIEEVQLEMKKGLQMRREQK,not soluble
13,MKKTAIALLAWFVSSASLAATPWQKITHPVPGAAQSIGSFANGCIIGADTLPVQSDNYQVMRTDQRRYFGHPDLVMFIQRLSHQAQQRGLGTVLIGDMGMPAGGRFNGGHASHQTGLDVDIFLQLPKTRWSQAQLLRPQALDLVSRDGKHVVPSRWSSDIASLIKLAAQDNDVTRIFVNPAIKQQLCLDAGNDRDWLRKVRPWFQHRAHMHVRLRCPADSLECEDQPLPPPGDGCGAELQSWFEPPKPGTTKPEKKTPPPLPPSCQALLDEHVL,not soluble
14,SLESYLRLSEVDKQILHSHALMLDGLGNFFGSTHEVILHSLENLESSAIKVINGHFSNRKEGAPITDMALKMLSQVESEHDYAVKPYYNKNQKGVILKSSTIPVIGENDRIIGLICINMHLEMPLIDYLQDLLPSGQQNDMSQELKNSEHFSDNIDELITTSLTKVKQAVESDPNVSHLNQNKEIVIRLYDQGIFNLKDSVIKIADRLGISKNTIYLHIRNHKKEEA,soluble
15,MSLKEFDFIKRYLQTGTDNDVVLGIGDDAAIVRPREGFDLCFSADMLLKDRHFFADVKPEDLAWKVLAVNISDMAAMGAIPRWVLLSAALPELDEVWLKRFCGSFFGLAKKFGVTLIGGDTTKGDMAFNVTIIGELPKGRALRRDAAVAGDDIWVSGRIGMAAAALNCRLKRCVLPDEVFAECEQKLLHPEPRVGLGLALLPFARAAQDVSDGLAQDLGHILTASGKGAEIWADSLPSLSVLKDILPRAQWLSYTLAGGDDYELVFTAPESCRSRVFDAAERCGVPVTRIGKINGGCRLKVLDADGRELELHSLGFDHFGEGHHHHHH,soluble
16,MGSDKIHHHHHHMSEAMQLTLPKSGSIEAYMQSAYSIPMLTAEKEHDLATRLYNENDLQAAQELIMSHLRFVIHVAKGYSGYGLPHADLVQEGNVGLMKAVKRFNPEVGVRLVSFAVHWIKAEIHEFVLKNWRIVKVATTKAQRKLFFNLRKNKKRLGWFSTEEVNTVAENLGVTTKDVMEMESRMSSHDQAFELSKDDDDNLGSSSFSPAQYLQDKQSDLAVEVENDNWDNHANKRLSTALVTLDERSQDIIKTRWLTEDKTTLQELANKYQISAERVRQLEKNALSKLKNTMVFD,not soluble
17,MSLADRLTIGEFSRITHLSIRMLRRYHEQDLLVPAEVDPDTGYRYYSPAQIRPALTVRRFRDLDLPLADLRRFLAAESADGPDDGTAQQVVAAHLRRLEDRLGRTQRAVEVLRELLDPEAEREGHHHHHH,not soluble
18,MAHHHHHHMAQAIRDAFTEEASLTVVEEWSSKVVSDLEARATNAHHARQGVLVKPYTADAAETVPVTIVASLREFQGQLYDIYRAAETIRTVIACRIPELKAEDNLGVEVQMTVLKMIDSLEGKLLGSSSGDKEGGAPGVAGMYAAREYLAARGSVEDKVLGKVSDDDKKTKSAAPSVLMELQQIDADALLKLELSATQISTQIRSFINAYAVNWKKLIQPRTNASEKSIS,soluble
19,MGSDKIHHHHHHLTQPITDWYKSGTGSTPVLKFQFATEKLLRPSGGGPSRRGTPIREIPMNLHKLLSDREQDGRPIRVGLIGAGRYGTMYLAQANNIPGIHVVAIADINVKRAEGAFELVGWPKNQIAPDIATALRDRSTTIVANADELFDVDIDVIVEATGNPIVGVKHALRAIETKKHIIMVTVEADALAGPALARRAEAAGVVYSMAYGDQPALIMELVDWARTSGFDVVCAGKGAKFLEHYHEMNPDNVWENWEFSKELTDSGQLNPNMHTSFRDGTKASIEMAAVANGAGLVPSDTGLTFTPGDVEEIATICRPADAGGVLAHEGTVDVMSSVKRDGTWIPHNTQEGVFVVVKATNAYVSGCFTEYPWHPDPTGQYAALYRPYHYVGLELNMSIANAALRGISTGSPIGFFGDVVATAKKNLKAGEFLDGEGGYTVWGQLVSAKHSVATGALPVALAHHVELRNDVAKGGIVGWDDVIMDDSLSQALEVRRETEALVAEFALNA,not soluble
20,MRSISVGLDREESGSDGLCLGLVVLATLAAGFVAGSDVLRCWGFGPATGDVCLWVEAGFWRCPLPGGGADGQGPGFWDAALREARMFCRSCVGLRMIGWRR,not soluble
21,GSHMVMNTHPYQSEAVSDVWSLSKTSMTFQPKKASLQPLTISLDELFSSRGEFISVGGNGRMSHKEAILLGLRYKKLYNQARVKYSL,soluble
